Experimental data: US9402900B2, “Methods of modulating adrenomedullin by administering an anti-adrenomedullin (ADM) antibody” (ADRENOMED AG, priority 2011, dated 2016)

Tests used:
[1] = biological target: T1, Human ADM 1-52 bioactivity at human recombinant adrenomedullin receptor (CRLR+RAMP3) in CHO-K1 cells (Homo sapiens, UniProt P35318); test: Human recombinant Adrenomedullin receptor cAMP functional assay (Adrenomedullin Bioassay), human ADM as agonist; format: cell-based; conditions: in the presence of 5.63 nM Human ADM 1-52; antibody up to 100 μg/ml
T1 construct: comprises the amino acids 95 to 146 of pre-proADM; FAST-027C (receptor cell line); host or cells: CHO-K1 cells transfected with human CRLR+RAMP3
T1 sequence (P35318 95-146): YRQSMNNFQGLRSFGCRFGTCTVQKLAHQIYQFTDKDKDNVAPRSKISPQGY
Procedure: The effect of selected ADM-antibodies on ADM-bioactivity was tested in an human recombinant Adrenomedullin receptor cAMP functional assay (Adrenomedullin Bioassay).
Testing of Antibodies Targeting Human or Mouse Adrenomedullin in Human Recombinant Adrenomedullin Receptor cAMP Functional Assay (Adrenomedullin Bioassay)
Receptor: Adrenomedullin (CRLR+RAMP3)
Receptor Accession Number Cell line: CRLR: U17473; RAMP3: AJ001016
Dose response curves were performed in parallel with the reference agonists (hADM or mADM).
For antagonist testing, 6 μl of the reference agonist (human (5.63 nM) or mouse (0.67 nM) adrenomedullin) was mixed with 6 μl of the test samples at different antagonist dilutions; or with 6 μl buffer. After incubation for 60 min at room temperature, 12 μl of cells (2,500 cells/well) were added. The plates were incubated for 30 min at room temperature.
The anti-h-ADM antibodies (NT-H, MR-H, CT-H) were tested for antagonist activity in human recombinant adrenomedullin receptor (FAST-027C) cAMP functional assay in the presence of 5.63 nM Human ADM 1-52, at the following final antibody concentrations: 100 μg/ml, 20 μg/ml, 4 μg/ml, 0.8 μg/ml, 0.16 μg/ml.

hADM = biological target: T2, hADM (Homo sapiens, UniProt P35318); test: hADM sandwich luminescence immunoassay, dose/signal curve in presence of antibody; conditions: 100 μg/mL antibody
T2 construct: comprises the amino acids 95 to 146 of pre-proADM; purchased BACHEM AG, Switzerland
T2 sequence (P35318 95-146): T1 sequence (P35318 95-146)
Procedure: The assay was calibrated, using dilutions of hADM
Unbound tracer was removed by washing 5 times (each 1 ml) with washing solution (20 mM PBS, pH 7.4, 0.1% Triton X-100).
Tube-Bound Chemiluminescence was Measured by Using the LB 953

Maximal inhibition of ADM bioactivity (ADM-Bioassay) (%) [1]: 38%
Effect on the hADM immunoassay (dose/signal curve) (hADM): did not affect
B1: NT-H: mouse monoclonal antibody raised against human ADM region 1-21 (SEQ ID: 15) (antibody, V domains shown)
VH: QVQLQQSGAELMKPGASVKISCKATGYTFSRYWIEWVKQRPGHGLEWIGEILPGSGSTNYNEKFKGKATITADTSSNTAYMQLSSLTSEDSAVYYCTEGYEYDGFDYWGQGTTLTVSS
VL: DVLLSQTPLSLPVSLGDQATISCRSSQSIVYSNGNTYLEWYLQKPGQSPKLLIYRVSNRFSGVPDRFSGSGSGTDFTLKISRVEAEDLGVYYCFQGSHIPYTFGGGTKLEIK
